# B1: Recombinant rat NADPH-cytochrome P450 reductase with a single amino acid mutation of K56Q (enzyme, UniProt P00388 1-678, looked up)
# chain: MGDSHEDTSATMPEAVAEEVSLFSTTDMVLFSLIVGVLTYWFIFRKKKEEIPEFSQIQTTAPPVKESSFVEKMKKTGRNIIVFYGSQTGTAEEFANRLSKDAHRYGMRGMSADPEEYDLADLSSLPEIDKSLVVFCMATYGEGDPTDNAQDFYDWLQETDVDLTGVKFAVFGLGNKTYEHFNAMGKYVDQRLEQLGAQRIFELGLGDDDGNLEEDFITWREQFWPAVCEFFGVEATGEESSIRQYELVVHEDMDVAKVYTGEMGRLKSYENQKPPFDAKNPFLAAVTANRKLNQGTERHLMHLELDISDSKIRYESGDHVAVYPANDSALVNQIGEILGADLDVIMSLNNLDEESNKKHPFPCPTTYRTALTYYLDITNPPRTNVLYELAQYASEPSEQEHLHKMASSSGEGKELYLSWVVEARRHILAILQDYPSLRPPIDHLCELLPRLQARYYSIASSSKVHPNSVHICAVAVEYEAKSGRVNKGVATSWLRAKEPAGENGGRALVPMFVRKSQFRLPFKSTTPVIMVGPGTGIAPFMGFIQERAWLREQGKEVGETLLYYGCRRSDEDYLYREELARFHKDGALTQLNVAFSREQAHKVYVQHLLKRDREHLWKLIHEGGAHIYVCGDARNMAKDVQNTFYDIVAEFGPMEHTQAVDYVKKLMTKGRYSLDVWS
# Molecular target: the molecule itself
# Assay: SEC
protein,measurement,value
B1,binding result,binds

# Source: PMC2789667 (Biochemistry, 2009)
